Measurements published in patent publication US20100021386A1.

Tests used:
[1] = target: IGF-II receptor (Long Evans rat liver) (rat); assay: saturation binding of [125I] IGF-II to pooled rat liver homogenate, filter plates; control diet, PPAR-δ agonist treated rats
[2] = target: IGF-II receptor (Long Evans rat liver) (rat); assay: saturation binding of [125I] IGF-II to pooled rat liver homogenate, filter plates; control diet, vehicle
[3] = target: IGF-II receptor (Long Evans rat liver) (rat); assay: saturation binding of [125I] IGF-II to pooled rat liver homogenate, filter plates; ethanol diet, PPAR-γ agonist treated rats
[4] = target: IGF-II receptor (Long Evans rat liver) (rat); assay: saturation binding of [125I] IGF-II to pooled rat liver homogenate, filter plates; ethanol diet, PPAR-δ agonist treated rats
[5] = target: IGF-II receptor (Long Evans rat liver) (rat); assay: saturation binding of [125I] IGF-II to pooled rat liver homogenate, filter plates; control diet, PPAR-γ agonist treated rats
[6] = target: IGF-II receptor (Long Evans rat liver) (rat); assay: saturation binding of [125I] IGF-II to pooled rat liver homogenate, filter plates; control diet, PPAR-α agonist treated rats
[7] = target: IGF-II receptor (Long Evans rat liver) (rat); assay: saturation binding of [125I] IGF-II to pooled rat liver homogenate, filter plates; ethanol diet, PPAR-α agonist treated rats
[8] = target: IGF-II receptor (Long Evans rat liver) (rat); assay: saturation binding of [125I] IGF-II to pooled rat liver homogenate, filter plates; ethanol diet, vehicle

Sequence of Human recombinant [125I] IGF-II (P01344 25-91): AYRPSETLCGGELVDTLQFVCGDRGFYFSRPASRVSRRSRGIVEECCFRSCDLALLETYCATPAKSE

BMAX [1]: 29 | BMAX [2]: 40.1 | BMAX [3]: 22.6 | BMAX [4]: 51.5 | BMAX [5]: 25.2 | BMAX [6]: 40.3 | BMAX [7]: 28.9 | BMAX [8]: 22.6
Substance: Human recombinant [125I] IGF-II (from UniProt P01344 25-91) (ligand)
